# B1: Rho-related GTP-binding protein RhoD (Homo sapiens), O00212 (parent)
# chain: MTAAQAAGEEAPPGVRSVKVVLVGDGGCGKTSLLMVFADGAFPESYTPTVFERYMVNLQVKGKPVHLHIWDTAGQDDYDRLRPLFYPDASVLLLCFDVTSPNSFDNIFNRWYPEVNHFCKKVPIIVVGCKTDLRKDKSLVNKLRRNGLEPVTYHRGQEMARSVGAVAYLECSARLHDNVHAVFQEAAEVALSSRGRNFWRRITQGFCVVT
# Variants of: B1
# Conditions: with plxb1_human PLXNB1, O43157
# Sequence of plxb1_human PLXNB1, O43157 (O43157 whole entry): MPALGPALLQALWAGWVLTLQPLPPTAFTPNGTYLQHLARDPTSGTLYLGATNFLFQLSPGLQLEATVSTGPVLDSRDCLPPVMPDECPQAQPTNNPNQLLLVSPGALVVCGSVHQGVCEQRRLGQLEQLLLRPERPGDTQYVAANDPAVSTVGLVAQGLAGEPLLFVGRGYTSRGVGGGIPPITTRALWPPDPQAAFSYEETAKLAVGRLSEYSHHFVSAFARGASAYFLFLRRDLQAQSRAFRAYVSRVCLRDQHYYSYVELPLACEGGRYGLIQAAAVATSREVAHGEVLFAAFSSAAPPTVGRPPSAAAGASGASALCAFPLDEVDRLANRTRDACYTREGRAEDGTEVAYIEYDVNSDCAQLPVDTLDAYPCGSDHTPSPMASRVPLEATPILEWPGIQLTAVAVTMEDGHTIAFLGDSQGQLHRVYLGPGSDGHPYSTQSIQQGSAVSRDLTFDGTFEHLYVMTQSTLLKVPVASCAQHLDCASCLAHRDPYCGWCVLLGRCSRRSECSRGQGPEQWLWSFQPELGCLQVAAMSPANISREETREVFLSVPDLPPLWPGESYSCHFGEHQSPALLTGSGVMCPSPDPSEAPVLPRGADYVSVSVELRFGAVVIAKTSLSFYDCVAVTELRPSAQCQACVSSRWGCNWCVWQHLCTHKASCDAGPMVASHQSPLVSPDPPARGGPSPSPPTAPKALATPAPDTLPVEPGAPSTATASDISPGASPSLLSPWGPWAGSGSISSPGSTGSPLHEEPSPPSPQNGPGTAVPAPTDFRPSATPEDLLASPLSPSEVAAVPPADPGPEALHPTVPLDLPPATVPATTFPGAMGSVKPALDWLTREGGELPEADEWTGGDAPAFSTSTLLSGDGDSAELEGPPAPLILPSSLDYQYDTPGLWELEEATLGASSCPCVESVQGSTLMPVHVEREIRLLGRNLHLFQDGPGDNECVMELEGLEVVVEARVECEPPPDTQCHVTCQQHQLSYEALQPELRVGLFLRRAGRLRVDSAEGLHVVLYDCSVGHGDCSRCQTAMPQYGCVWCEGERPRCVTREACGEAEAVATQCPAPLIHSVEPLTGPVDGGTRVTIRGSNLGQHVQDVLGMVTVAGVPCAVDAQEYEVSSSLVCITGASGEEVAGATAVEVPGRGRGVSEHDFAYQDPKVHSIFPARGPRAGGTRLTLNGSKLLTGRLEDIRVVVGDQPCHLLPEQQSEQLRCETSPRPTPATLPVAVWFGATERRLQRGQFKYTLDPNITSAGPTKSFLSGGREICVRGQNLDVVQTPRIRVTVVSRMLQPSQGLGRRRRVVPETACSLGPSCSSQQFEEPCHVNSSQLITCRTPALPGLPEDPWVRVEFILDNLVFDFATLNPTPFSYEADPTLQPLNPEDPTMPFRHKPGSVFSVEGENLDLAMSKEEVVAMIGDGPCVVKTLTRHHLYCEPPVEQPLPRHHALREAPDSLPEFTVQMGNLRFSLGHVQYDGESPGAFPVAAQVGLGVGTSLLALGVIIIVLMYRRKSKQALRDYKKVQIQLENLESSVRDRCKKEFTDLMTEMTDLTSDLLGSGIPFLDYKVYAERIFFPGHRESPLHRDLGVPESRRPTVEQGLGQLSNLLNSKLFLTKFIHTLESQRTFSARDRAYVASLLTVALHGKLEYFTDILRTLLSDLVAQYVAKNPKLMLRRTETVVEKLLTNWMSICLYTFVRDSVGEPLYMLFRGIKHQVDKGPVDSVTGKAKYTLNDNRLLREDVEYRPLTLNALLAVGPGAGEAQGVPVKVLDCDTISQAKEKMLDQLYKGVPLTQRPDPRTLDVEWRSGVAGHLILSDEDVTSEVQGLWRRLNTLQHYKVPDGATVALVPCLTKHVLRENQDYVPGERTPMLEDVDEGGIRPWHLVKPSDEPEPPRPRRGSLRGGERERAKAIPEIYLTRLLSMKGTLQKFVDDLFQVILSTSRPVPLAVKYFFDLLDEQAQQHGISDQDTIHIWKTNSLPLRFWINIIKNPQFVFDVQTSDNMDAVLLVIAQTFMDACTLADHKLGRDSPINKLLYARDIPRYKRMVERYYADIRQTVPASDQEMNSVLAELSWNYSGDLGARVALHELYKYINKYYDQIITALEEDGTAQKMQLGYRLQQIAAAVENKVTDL
row,Variant,effect of a mutation on the interaction
1,MTAAQAAGEEAPPGVRSVKVVLVGDGGCGKKSLLMVFADGAFPESYTPTVFERYMVNLQVKGKPVHLHIWDTAGQDDYDRLRPLFYPDASVLLLCFDVTSPNSFDNIFNRWYPEVNHFCKKVPIIVVGCKTDLRKDKSLVNKLRRNGLEPVTYHRGQEMARSVGAVAYLECSARLHDNVHAVFQEAAEVALSSRGRNFWRRITQGFCVVT [T31K],disrupting interaction

# From IntAct's records for PubMed 22404908
